koff and Kd data for one molecule are collected here from article PMC7857400 (2020).

A value given as a limit tells only on which side of the number the result lay.

In assay [1] the target is T1, SARS-CoV-2 spike protein receptor binding domain (RBD) (SARS-CoV-2, UniProt P0DTC2 319-541). Briefly: SPR.
For assay [2], the target named is T1, SARS-CoV-2 spike protein receptor …. Briefly: SPR. This is another data set of the same source.

B1: Nb21 (VHH)
VHH: QVQLVESGGGLVQAGGSLRLSCAVSGLGAHRVGWFRRAPGKEREFVAAIGANGGNTNYLDSVKGRFTISRDNAKNTIYLQMNSLKPQDTAVYYCAARDIETAEYTYWGQGTQVTVSS
Turning to B1, the koff in assay [1] is less than 1e-06 s⁻¹. The molecule further gave a Kd in assay [2] of less than 1 pM.
